What was measured:
[1] = biological target: T1, human CD70 expressed on the cell surface of tumor cell lines (human, UniProt P32970 1-193); assay: cell-based or functional assay
T1 sequence (looked up): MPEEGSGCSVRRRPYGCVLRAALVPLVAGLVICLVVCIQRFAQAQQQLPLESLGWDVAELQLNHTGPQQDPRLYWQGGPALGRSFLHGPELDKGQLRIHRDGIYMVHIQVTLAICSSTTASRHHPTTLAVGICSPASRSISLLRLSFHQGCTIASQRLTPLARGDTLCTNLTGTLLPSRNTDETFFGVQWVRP

[2] = biological target: T1, human CD70 expressed on the cell …; assay: flow cytometry on U251 cells
Method: (§1) The lead antibodies were tested for binding to renal carcinoma cells and glioblastoma cells expressing CD70 on the cell surface by flow cytometry. […] U251 cells were cultured with MEM medium containing of 10% FBS and 1% NEAA+1 mM sodium pyruvate. DBTRG-05MG cells were cultured with DMEM medium (Gibco, Cat #C11995500BT) containing of 10% FBS. Each of the lead antibodies and the controls were incubated for 30 mins with the different cell lines (3×10⁵ cells per well) in 0.2 ml FACS buffer (1×PBS with 0.1% BSA) at 4° C. Then, the cells were pelleted, washed, and incubated at 4° C. for 30 mins with 100 μl of 1:200 diluted PE-conjugated anti human Fc (Abcam, Ab98596) in FACS buffer. The cells were pelleted again, washed with PBS, resuspended in FACS buffer and analyzed by flow cytometer (Beckman, CytoFLEX).
(§2) Antibodies 2H8 and 2D2 had slightly higher binding ability to the cell lines than that of antibody 69A7.

[3] = biological target: T1, human CD70 expressed on the cell …; assay: flow cytometry on 786-O cells
Method: as §1, §2

[4] = biological target: T1, human CD70 expressed on the cell …; assay: flow cytometry on Caki-1 cells
Method: as §1, §2

[5] = biological target: T1, human CD70 expressed on the cell …; assay: flow cytometry on DBTRG-05MG cells
Method: as §1, §2

[6] = biological target: T2, CD70 ECD (antigen immobilized on the CM5 chip) (UniProt P32970 39-193); assay: SPR (Biacore T200), CD70 ECD on CM5 chip, IgG as analyte
T2 construct: extracellular domain; also called CD70 antigen
T2 sequence (looked up): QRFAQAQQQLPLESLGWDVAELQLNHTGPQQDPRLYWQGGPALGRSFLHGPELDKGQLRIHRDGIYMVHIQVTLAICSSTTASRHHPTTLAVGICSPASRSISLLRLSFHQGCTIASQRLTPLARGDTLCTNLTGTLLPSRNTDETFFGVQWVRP
Method: (§3) The immobilization of antigen CD70 ECD was performed at 25° C. with HBS-EP as the running buffer. Sensor chip surface of flow cells 1, 4 were activated by freshly mixed 50 mmol/L N-Hydroxy succinimide (NHS) and 200 mmol/L 1-ethyl-3-(3-dimethylaminopropyl) carbodiimide hydrochloride (EDC) for 420s (10 μL/min). Afterwards, CD70 antigen diluted in 10 mmol/L NaAC (pH 4.5) was injected into flow cell 4 to achieve conjugation of the appropriate Response Unit, while flow cell 1 was set as a blank. After the amine coupling reaction, the remaining active coupling sites on chip surface were blocked by 420s injection of 1 mol/L ethanolamine hydrochloride.
(§4) The assay was performed at 25° C. and the running buffer was HBS-EP. Diluted antibodies were injected over the surface of flow cells 1 and 4 during the association phase, followed by injecting running buffer as the dissociation phase. All the data were processed using Biacore T200 Evaluation software version 3.1. Flow cell 1 and a blank injection of buffer in each cycle were used as a double reference for Response Units subtraction. Kinetic data of the interaction between the antibodies and CD70 antigen were obtained through affinity measurement.

[7] = biological target: T2, CD70 ECD (antigen immobilized on the …); assay: SPR (Biacore T200), CD70 ECD on CM5 chip; upper end tied to 2A4P0L1 by the KD values of Table 8
Method: as §3, §4

[8] = biological target: T1, human CD70 expressed on the cell …; assay: flow cytometry on U251 cells, PE anti-human Fc, MFI; same fit as Table 6, which prints it in nM
Method: as §1, §2

[9] = biological target: T3, human CD70 recombinant protein (human, UniProt P32970 39-193, limits assumed); assay: ELISA, IgG titrated on coated human CD70 recombinant protein (2 µg/ml), anti-human Fc-HRP, OD450
T3 construct: May be the same reagent as ACRO CDL-H5246; also called CD70 protein
T3 sequence (looked up): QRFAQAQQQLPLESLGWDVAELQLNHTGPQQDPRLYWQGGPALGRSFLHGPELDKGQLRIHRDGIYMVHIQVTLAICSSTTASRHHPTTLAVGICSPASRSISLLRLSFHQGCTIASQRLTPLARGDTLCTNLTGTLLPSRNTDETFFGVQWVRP
Method: (§5) The binding specificity of the CD70 antibodies was tested by ELISA according to a standard protocol. Briefly, 96-well micro-plates were coated with 2 μg/ml of human or cynomolgus CD70 recombinant protein in PBS at 100 μl per well and incubated overnight at 4° C. The plates were washed twice with TBS+0.5% Tween20. 200 μL of blocking buffer (2% BSA in PBS) was added to each well, and the plates were incubated at 37° C. for 2 hours. The plates were washed using the wash buffer mentioned above. Serially diluted antibodies were added to the ELISA plates using 100 μl per well, and the plates were incubated for 1 hour at room temperature. Then plates were washed 3 times. HRP conjugated anti-human Fc antibody solution (Sigma, I18885-2ML, diluted with blocking buffer) was added to the plates using 100 μl per well. The plates were incubated at room temperature for 1 hour and then washed 3 times. Then the TMB solution was added to plates using 100 μl per well and the plates were placed at RT for 5-15 mins. Then the stop solution (2M H2SO4) was added using 50 μl per well. The absorbance was measured at A450 and A630.

[10] = biological target: T1, human CD70 expressed on the cell …; assay: flow cytometry on 786-O cells, PE anti-human Fc, MFI; same fit as Table 6, which prints it in nM
Method: as §1, §2

[11] = biological target: T1, human CD70 expressed on the cell …; assay: flow cytometry on Caki-1 cells, PE anti-human Fc, MFI; same fit as Table 6, which prints it in nM
Method: as §1, §2

[12] = biological target: T4, cynomolgus CD70 recombinant protein (cynomolgus, UniProt A0A2K5WTU9 39-190); assay: ELISA, IgG titrated on coated cynomolgus CD70 recombinant protein (2 µg/ml), anti-human Fc-HRP, OD450
T4 construct: also called cyno-antigen; cynomolgus CD70 protein
T4 sequence: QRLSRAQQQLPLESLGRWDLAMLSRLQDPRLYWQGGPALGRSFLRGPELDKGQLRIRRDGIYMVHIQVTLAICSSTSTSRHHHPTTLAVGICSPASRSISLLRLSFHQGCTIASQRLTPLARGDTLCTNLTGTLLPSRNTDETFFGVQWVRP
Method: as §5

[13] = biological target: T1, human CD70 expressed on the cell …; assay: flow cytometry on DBTRG-05MG cells, PE anti-human Fc, MFI; same fit as Table 6, which prints it in nM
Method: as §1, §2

B1: 2A4P0L1, full IgG (antibody, V domains shown)
VH: QVQLQESGPGLVKPSETLSLTCTVSGGSVSSDYYYWSWIRQPPGKGLEWLGYIYYSGSTNYNPSLKSRVTISVDTSKNQFSLKLRSVTTADTAVYYCARGDGDYGGNVFPYWGQGTLVTVSS
VL: EIVLTQSPATLSLSPGERATLSCRASQSVSSYLAWYQQKPGQAPRLLIFDASNRATGIPARFSGSGSGTDFTLTISSLEPEDFAVYYCQQRLKFPLTFGGGTKVEIK
Internalization rate (%) on 786-O [1]: 61% | Internalization rate (%) on Caki-1 [1]: 22% | EC50 [2]: 4.72 nM | EC50 [3]: 2.98 nM | EC50 [4]: 5.44 nM | EC50 [5]: 5.84 nM | Kd [6]: 38.6 nM | koff [6]: 0.00197 s⁻¹ | kon [6]: 51000 M⁻¹ s⁻¹ | fold improved affinity against parent antibody 69A7 [7]: 3 to 8 fold | EC50 [8]: 0.708 µg/mL | EC50 [9]: 0.263 µg/mL | EC50 [10]: 0.447 µg/mL | EC50 [11]: 0.816 µg/mL | EC50 [12]: 0.00335 µg/mL | EC50 [13]: 0.876 µg/mL

— US20250066490A1 (PROFOUNDBIO US, published 2025)
